Experimental data published in patent publication US20250092134A1.
Changes are numbered by the printed parent chain.

B1: 21G11A8 (antibody, V domains shown)
VH: EVQLQESGPDLKKPGETVKISCKASGYTFTTYGMNWVKQAPGKGLKWMGYLNTYSGVSTYADDFKGRFAFSLETSANTAYLQINNLRNDDTATYFCARWGNYGAMDYWGQGTSVTVSS
VL: DIKMTQSPLSLPVSLGDQASISCRSSQSIVRSNGFTYLEWYLQKPGQSPELLIYKVSNRFSGVPDRFSGSGSGTDFTLKISRVEAEDLGVYYCFQSSHVPRTFGGGTKLEIK
B2: 21G11D5 (antibody, V domains shown)
VH: B1 VH
VL: B1 VL with K3V
B3: 28B2A2 (antibody, IgG2a, V domains shown)
VH: EVQLQESGPELVKPGASVKMSCKASGYTFTDDNMHWVKQSHGKSLEWIGYINPNNNHTNYNQKFKGKATLTVNKSSSTAYMELRSLTSEDSAVYFCARSTVVPFYAMDYWGQGTSVTVSS
VL: DIVMTQSPASLSMAIGEKVTIRCITITDIDDDMNWYQQKPGEPPKLLFSEGNTLRPGVPSRFSSSGYGSDFAFTIENMLSEDVADYYCLQSDNLPLTFGAGTKLELK
B4: 28B2A4 (antibody, IgG2a, V domains shown)
VH: B3 VH
VL: B3 VL with V3Q, A100G, L106I
B5: 28B2F5 (antibody, IgG2a, V domains shown)
VH: B3 VH
VL: B3 VL with V3K
B6: 28C9A5 (antibody, IgG2b, V domains shown)
VH: EVQLQESGAELVRPGTSVKMSCKASGYTFTHYWIDWTKQRPGHGLEWIGNIYPGGGYTNYNENFKGKATLTADKSSSTVFMQFSSLTSDDSAIYYCTRKGYYYGSDWYFDVWGTGTTVTVSS
VL: QIVLSQSPAIMSASPGEKVTMTCSASSSVSYMHWYQQKSGTSPKRWIYDTSKLASGVPARFSGSGSGTSYSLTISSMEAEDAATYYCQQWSSNPYTFGGGTKLEIK
B7: 28D2E6 (antibody, IgG1, V domains shown)
VH: EVQLQESGPGLVKPSQSLSLTCSVTGYFISSGYYWKWIRQFPGNKLEWMGYISYDGSNNYNPSLKNRISITRDTSKNQFFLKLNSVTAEDTATYYCARGGGYVPVWGTGTTVTVSS
VL: B1 VL with K3Q, F35N, E50K
B8: 20A9A9 (antibody, V domains shown)
VH: EVQLQESGPGLVQPSQSLSITCTVSGFSLTSYGVHWVRQSPGKGLEWLGIIWSAGGTDYNAAFISRLSISKDNSKSQIFFKLNSLHADDTAIYFCARGSFYDYGRLDYWGQGTTLTVSS
VL: DIVMTQSHRFMSTSVGDRVSITCKASQDVSTAVAWYQQKPGQSPKLLIYSSSYRYTGVPDRFTGSGSGTDFTFTISSVQAEDLAVYYCQQHYGTPYTFGGGTKLEIQ
B9: 23A9B10 (antibody, V domains shown)
VH: B7 VH with F28S, S30T, K36N, P42L, S53T, N66D, K82N, A88T, E89D
VL: IQMTQSPAFLSVSPGERVSFSCRASQNIGTSIHWYQQRTNGSPRLLIKYASESISGIPSRFSGSGSGTDFTLSINSVESEDFADYYCHQSHNWPTTFGAGTKLELK
B10: 23A9C10 (antibody, V domains shown)
VH: B7 VH with F28S, S30T, K36N, P42L, S53T, N66D, K82N, A88T, E89D
VL: DIQMTQSPAFLSVSPGERVSFSCRASQNIGTSIHWYQQRTNGSPRLLIKYASESISGIPSRFSGSGSGTDFTLSINSVESEDFADYYCHQSHNWPTTFGAGTKLELK
B11: 23A9F7 (antibody, V domains shown)
VH: B7 VH with F28S, S30T, K36N, P42L, S53T, N66D, K82N, A88T, E89D
VL: B10 VL with I2V
B12: 28D2E8 (antibody, IgG1, V domains shown)
VH: B7 VH
VL: B1 VL with F35N, E50K

What was measured:
[1] = target: HuTCR Vb7/9 × Va10.2 (SKW3-3) (human); test: flow cytometry on SKW3-3 cells (no Vβ17)
[2] = target: HuTCR Vb17 × Va12 (SKW3-2) (human); test: flow cytometry on SKW3-2 cells
HuTCR Vb17 × Va12 (SKW3-2) (human), sequence (A0A075B6N1 22-114): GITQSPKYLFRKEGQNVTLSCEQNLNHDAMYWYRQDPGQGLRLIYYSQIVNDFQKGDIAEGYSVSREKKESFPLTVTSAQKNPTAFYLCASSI

[3] = target: TCR Vβ17 on T cells of PBMCs; test: flow cytometry on PBMCs, percent of cells stained
TCR Vβ17 on T cells of PBMCs, sequence (A0A075B6N1 22-114): as above

[4] = target: TCR Vβ17 on T cells of PBMCs; test: cell-based or functional assay
[5] = target: HuTCR Vb17 × Va10.2 (SKW3_1) (human); test: flow cytometry on SKW3-1 cells
HuTCR Vb17 × Va10.2 (SKW3_1) (human), sequence (A0A075B6N1 22-114, chain 1 of 2): as the sequence (A0A075B6N1 22-114) above
HuTCR Vb17 × Va10.2 (SKW3_1) (human), sequence (A0A087WT01 20-109, chain 2 of 2, further chain): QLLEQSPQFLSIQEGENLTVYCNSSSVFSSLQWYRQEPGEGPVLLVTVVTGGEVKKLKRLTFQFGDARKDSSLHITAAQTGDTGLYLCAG

[6] = target: Vβ17 (on cells expressing Vβ17); test: cell-based or functional assay
Vβ17 (on cells expressing Vβ17), sequence (A0A075B6N1 22-114): as the sequence (A0A075B6N1 22-114) above

Binder	MFI [1]	MFI [2]	PBMC binding (%) [3]	Proliferation (EC50, ug/ml) [4]	MFI [5]	Cell Internalization (EC50) [6]
B1	532 MFI	38900 MFI	2.96%	> 5 µg/mL	48700 MFI	
B2	427 MFI	56300 MFI	3.06%	2 µg/mL	47500 MFI	
B3	434 MFI	36500 MFI	3.13%		77400 MFI	< 0.07 nM
B4	472 MFI	53800 MFI	2.97%	> 5 µg/mL	45700 MFI	< 0.07 nM
B5	438 MFI	36600 MFI	3.2%	0.7 µg/mL	81800 MFI	< 0.07 nM
B6	438 MFI	56900 MFI	3.27%	0.9 µg/mL	55200 MFI	
B7	441 MFI	53800 MFI	3.27%	0.3 µg/mL	38000 MFI	
B8	448 MFI	43100 MFI	2.7%	> 5 µg/mL	39500 MFI	
B9	507 MFI	6600 MFI	2.74%		10100 MFI	
B10	458 MFI	3210 MFI	3.2%		7660 MFI	
B11	466 MFI	3400 MFI	2.32%		8600 MFI	
B12	452 MFI	50000 MFI	3.3%		43600 MFI	
